{"source": "patent US20180051059A1", "target": "endogenous Ldb1 complexes at the LCR (in G1E cells) (UniProt P70662)", "sequence (P70662 2-411 limits assumed, one chain of several)": "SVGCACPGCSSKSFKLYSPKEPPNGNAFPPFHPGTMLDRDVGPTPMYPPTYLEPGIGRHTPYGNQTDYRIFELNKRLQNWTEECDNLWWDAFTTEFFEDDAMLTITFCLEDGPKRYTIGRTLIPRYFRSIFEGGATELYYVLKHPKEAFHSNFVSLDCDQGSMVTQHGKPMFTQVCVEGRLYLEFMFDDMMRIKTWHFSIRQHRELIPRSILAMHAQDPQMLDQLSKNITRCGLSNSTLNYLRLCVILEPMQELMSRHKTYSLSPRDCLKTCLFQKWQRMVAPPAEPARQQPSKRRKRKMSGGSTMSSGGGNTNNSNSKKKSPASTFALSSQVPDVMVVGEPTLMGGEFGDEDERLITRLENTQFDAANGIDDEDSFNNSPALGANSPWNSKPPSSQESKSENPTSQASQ", "experiment": "cell-based or functional assay"}
{"substance": "P-Ldb1 (P-ZF, zinc finger protein targeting the β-major promoter, fused to full length Ldb1)", "values": [{"measurement": "β-globin transcription in G1E cells (RT-qPCR)", "value": "> 1000", "unit": "fold"}]}
